Measurements: patent US20200174002A1 (ONCOTHERAPY SCIENCE, published 2020)

Assays:
[1] = biological target: T1, soluble FZD10 protein without the signal peptide (the region of amino acids 21 to 161) (human, UniProt Q9ULW2 21-161); assay: ELISA screening of hybridomas on soluble FZD10 protein
T1 construct: Immunogen and ELISA screening antigen; also called recombinant human FZD10 protein; N-terminal extracellular domain peptide of FZD10
T1 sequence: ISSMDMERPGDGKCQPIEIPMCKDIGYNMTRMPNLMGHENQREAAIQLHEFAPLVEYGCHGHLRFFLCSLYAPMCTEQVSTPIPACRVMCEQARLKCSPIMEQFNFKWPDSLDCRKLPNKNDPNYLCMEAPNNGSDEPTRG

[2] = biological target: T2, full length FZD10 protein (human) (human, UniProt Q9ULW2 21-581); assay: immunohistochemical staining, paraffin section of a clinical lung cancer specimen
T2 construct: Live cells in flow cytometry; formalin-fixed paraffin sections in IHC
T2 sequence: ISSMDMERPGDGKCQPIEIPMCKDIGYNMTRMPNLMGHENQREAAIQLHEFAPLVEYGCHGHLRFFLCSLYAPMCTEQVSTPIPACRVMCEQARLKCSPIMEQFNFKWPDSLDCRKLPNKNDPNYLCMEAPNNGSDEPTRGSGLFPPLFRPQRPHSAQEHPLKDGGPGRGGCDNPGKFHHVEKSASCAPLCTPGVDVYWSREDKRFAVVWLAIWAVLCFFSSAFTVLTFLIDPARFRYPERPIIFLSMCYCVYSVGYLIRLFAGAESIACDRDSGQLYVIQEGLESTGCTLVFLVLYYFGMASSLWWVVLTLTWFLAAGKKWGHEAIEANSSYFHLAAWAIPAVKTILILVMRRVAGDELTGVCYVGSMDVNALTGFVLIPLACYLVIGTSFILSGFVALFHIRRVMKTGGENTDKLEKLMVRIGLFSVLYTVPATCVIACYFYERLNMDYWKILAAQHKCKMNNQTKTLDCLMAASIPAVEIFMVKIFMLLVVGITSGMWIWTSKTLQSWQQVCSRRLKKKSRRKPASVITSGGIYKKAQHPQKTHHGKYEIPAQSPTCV
Procedure: For antigen retrieval treatment, sections immersed in Antigen Retrieval Solution pH9 (Nichirei Biosciences Inc.) were incubated at 125° C. for 30 seconds for FZD10/DLD1 and Mock/DLD1, and at 95° C. for 40 minutes for SYO1, T.T, H727, LoVo, COLO201, and clinical specimens. After incubation, they were allowed to stand at room temperature for 20 minutes, and then washed with running water for five minutes. The sections were immersed in 3.0% hydrogen peroxide for ten minutes to block endogenous peroxidases, and washed with Wash Buffer (TBS-T(Takara Bio)) for five minutes three times. Furthermore, to block nonspecific reactions, an appropriate amount of Protein Block Solution (Dako) was added dropwise onto the sections, and they were allowed to stand for ten minutes. […]
The specificity of the anti-FZD10 antibody of the present invention (10A8H4G4) in immunohistochemical staining was evaluated using paraffin sections prepared from mouse xenograft tumors of cancer cell lines and clinical lung cancer specimens. The expression of FZD10 protein and RNA in paraffin sections prepared from mouse xenograft tumors of SYO-1 and COLO201 and in cancerous and non-cancerous regions of clinical lung cancer specimens 1 to 6 was detected by immunohistochemical staining and real-time PCR, respectively, and the results are shown in FIG. 4.

B1: anti-FZD10 antibody (10A8H4G4) (antibody, V domains shown)
VH: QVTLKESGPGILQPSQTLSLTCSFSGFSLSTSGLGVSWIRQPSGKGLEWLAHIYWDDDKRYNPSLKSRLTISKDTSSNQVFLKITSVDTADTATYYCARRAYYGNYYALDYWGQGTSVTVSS
VL: DIVMTQSPSSLTVTAGEKVTMSCKSSQSLLNSGNQKNYLTWYQQKPGQPPKLLIYWASTRKSGVPDRFTGSGSGTDFTLTISSVQAEDLAVYYCQNDYSYPVTFGAGTKLELKR
notes: Mouse monoclonal antibody from hybridoma 10A8H4G4, purified from culture fluid on a Protein A column; it was detected with anti-mouse IgG (H+L); also called clone 10A8H4G4; FZD10Ab(10A8H4G4)
Q: Does B1 bind [1]?
A: binds

Q: Does B1 bind [2]?
A: binds
